{"source": "IntAct's records for PubMed 31515488", "parents": {"B1": {"name": "Tripartite motif-containing protein 10 (Homo sapiens), Q9UDY6 (parent)", "chain": "MASAASVTSLADEVNCPICQGTLREPVTIDCGHNFCRACLTRYCEIPGPDLEESPTCPLCKEPFRPGSFRPNWQLANVVENIERLQLVSTLGLGEEDVCQEHGEKIYFFCEDDEMQLCVVCREAGEHATHTMRFLEDAAAPYREQIHKCLKCLRKEREEIQEIQSRENKRMQVLLTQVSTKRQQVISEFAHLRKFLEEQQSILLAQLESQDGDILRQRDEFDLLVAGEICRFSALIEELEEKNERPARELLTDIRSTLIRCETRKCRKPVAVSPELGQRIRDFPQQALPLQREMKMFLEKLCFELDYEPAHISLDPQTSHPKLLLSEDHQRAQFSYKWQNSPDNPQRFDRATCVLAHTGITGGRHTWVVSIDLAHGGSCTVGVVSEDVQRKGELRLRPEEGVWAVRLAWGFVSALGSFPTRLTLKEQPRQVRVSLDYEVGWVTFTNAVTREPIYTFTASFTRKVIPFFGLWGRGSSFSLSS"}, "B2": {"name": "Protein boule-like (Homo sapiens), Q8N9W6 (parent)", "chain": "MQTDSLSPSPNPVSPVPLNNPTSAPRYGTVIPNRIFVGGIDFKTNESDLRKFFSQYGSVKEVKIVNDRAGVSKGYGFVTFETQEDAQKILQEAEKLNYKDKKLNIGPAIRKQQVGIPRSSIMPAAGTMYLTTSTGYPYTYHNGVAYFHTPEVTSVPPPWPSRSVCSSPVMVAQPIYQQPAYHYQATTQYLPGQWQWSVPQPSASSAPFLYLQPSEVIYQPVEIAQDGGCVPPPLSLMETSVPEPYSDHGVQATYHQVYAPSAITMPAPVMQPEPIKTVWSIHY", "partner": "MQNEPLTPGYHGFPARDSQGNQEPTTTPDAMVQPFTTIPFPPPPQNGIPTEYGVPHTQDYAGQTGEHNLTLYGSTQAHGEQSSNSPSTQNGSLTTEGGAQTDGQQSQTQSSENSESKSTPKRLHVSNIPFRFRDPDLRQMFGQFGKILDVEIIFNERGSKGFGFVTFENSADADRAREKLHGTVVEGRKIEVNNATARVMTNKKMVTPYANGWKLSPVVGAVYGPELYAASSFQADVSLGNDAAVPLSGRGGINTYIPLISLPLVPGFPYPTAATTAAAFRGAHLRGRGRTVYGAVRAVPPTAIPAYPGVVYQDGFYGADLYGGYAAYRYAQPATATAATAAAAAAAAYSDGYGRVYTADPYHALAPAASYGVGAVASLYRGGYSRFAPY"}, "B3": {"name": "Germ cell-less protein-like 1 (Homo sapiens), Q96IK5 (parent)", "chain": "MGSLSSRVLRQPRPALAQQAQGARAGGSARRPDTGDDAAGHGFCYCAGSHKRKRSSGSFCYCHPDSETDEDEEEGDEQQRLLNTPRRKKLKSTSKYIYQTLFLNGENSDIKICALGEEWSLHKIYLCQSGYFSSMFSGSWKESSMNIIELEIPDQNIDVEALQVAFGSLYRDDVLIKPSRVVAILAAACLLQLDGLIQQCGETMKETVNVKTVCGYYTSAGTYGLDSVKKKCLEWLLNNLMTHQNVELFKELSINVMKQLIGSSNLFVMQVEMDIYTALKKWMFLQLVPSWNGSLKQLLTETDVWFSKQRKDFEGMAFLETEQGKPFVSVFRHLRLQYIISDLASARIIEQDAVVPSEWLSSVYKQQWFAMLRAEQDSEVGPQEINKEELEGNSMRCGRKLAKDGEYCWRWTGFNFGFDLLVTYTNRYIIFKRNTLNQPCSGSVSLQPRRSIAFRLRLASFDSSGKLICSRTTGYQILTLEKDQEQVVMNLDSRLLIFPLYICCNFLYISPEKKN"}}, "data": [{"variants_of": "B1", "conditions": "with psa1_human PSMA1, P25786", "values": [{"variant": "MASAASVTSLADEVNCPICQGTLREPVTIDCGHNFCRACLTRYCEIPGPDLEESPTCPLCKEPFHPGSFRPNWQLANVVENIERLQLVSTLGLGEEDVCQEHGEKIYFFCEDDEMQLCVVCREAGEHATHTMRFLEDAAAPYREQIHKCLKCLRKEREEIQEIQSRENKRMQVLLTQVSTKRQQVISEFAHLRKFLEEQQSILLAQLESQDGDILRQRDEFDLLVAGEICRFSALIEELEEKNERPARELLTDIRSTLIRCETRKCRKPVAVSPELGQRIRDFPQQALPLQREMKMFLEKLCFELDYEPAHISLDPQTSHPKLLLSEDHQRAQFSYKWQNSPDNPQRFDRATCVLAHTGITGGRHTWVVSIDLAHGGSCTVGVVSEDVQRKGELRLRPEEGVWAVRLAWGFVSALGSFPTRLTLKEQPRQVRVSLDYEVGWVTFTNAVTREPIYTFTASFTRKVIPFFGLWGRGSSFSLSS", "note": "[R65H]", "effect of a mutation on the interaction": "with no effect"}]}, {"variants_of": "B2", "conditions": "with rfox2_human RBFOX2, O43251", "values": [{"variant": "MQTDSLSPYPNPVSPVPLNNPTSAPRYGTVIPNRIFVGGIDFKTNESDLRKFFSQYGSVKEVKIVNDRAGVSKGYGFVTFETQEDAQKILQEAEKLNYKDKKLNIGPAIRKQQVGIPRSSIMPAAGTMYLTTSTGYPYTYHNGVAYFHTPEVTSVPPPWPSRSVCSSPVMVAQPIYQQPAYHYQATTQYLPGQWQWSVPQPSASSAPFLYLQPSEVIYQPVEIAQDGGCVPPPLSLMETSVPEPYSDHGVQATYHQVYAPSAITMPAPVMQPEPIKTVWSIHY", "note": "[S9Y]", "effect of a mutation on the interaction": "with no effect"}, {"variant": "MQTDSLSPSPNPVSPVPLNNPTSAPRYGTVIPNRIFVGGIDFKTNESDLRKFFSQYGSVKEVKIVNDRAGVSKGYGFITFETQEDAQKILQEAEKLNYKDKKLNIGPAIRKQQVGIPRSSIMPAAGTMYLTTSTGYPYTYHNGVAYFHTPEVTSVPPPWPSRSVCSSPVMVAQPIYQQPAYHYQATTQYLPGQWQWSVPQPSASSAPFLYLQPSEVIYQPVEIAQDGGCVPPPLSLMETSVPEPYSDHGVQATYHQVYAPSAITMPAPVMQPEPIKTVWSIHY", "note": "[V78I]", "effect of a mutation on the interaction": "with no effect"}, {"variant": "MQTDSLSPSPNPVSPVPLNNPTSAPRYGTVIPNRIFVGGIDFKTNESDLRKFFSQYGSVKEVKIVNDRAGVSKGYGFVTFETQEDAQKILQEAEKLNYKDKKLNIGPAIRKQQVGIPRSSIMPAAGTMYLTTSTGYPYTYHNGVAYFHTPEVTSVPPPWPSRSVCSSPVMVAQPIYQQPAYHYQATTQYLPGQWQWSVPQPSASSAPFLYLQPSEVIYQPVEIAQDGGCVPPPLSLMETSVPEPYSDHGVQATYHQVYAPSAITMPAPVIQPEPIKTVWSIHY", "note": "[M270I]", "effect of a mutation on the interaction": "with no effect"}]}, {"variants_of": "B3", "conditions": "with cul3_human CUL3, Q13618", "values": [{"variant": "MGSLSSRVLRQPRPALAQQAQGARAGGSARRPDTGDDAAGHGFCYCAGSHKRKRSSGSFCSCHPDSETDEDEEEGDEQQRLLNTPRRKKLKSTSKYIYQTLFLNGENSDIKICALGEEWSLHKIYLCQSGYFSSMFSGSWKESSMNIIELEIPDQNIDVEALQVAFGSLYRDDVLIKPSRVVAILAAACLLQLDGLIQQCGETMKETVNVKTVCGYYTSAGTYGLDSVKKKCLEWLLNNLMTHQNVELFKELSINVMKQLIGSSNLFVMQVEMDIYTALKKWMFLQLVPSWNGSLKQLLTETDVWFSKQRKDFEGMAFLETEQGKPFVSVFRHLRLQYIISDLASARIIEQDAVVPSEWLSSVYKQQWFAMLRAEQDSEVGPQEINKEELEGNSMRCGRKLAKDGEYCWRWTGFNFGFDLLVTYTNRYIIFKRNTLNQPCSGSVSLQPRRSIAFRLRLASFDSSGKLICSRTTGYQILTLEKDQEQVVMNLDSRLLIFPLYICCNFLYISPEKKN", "note": "[Y61S]", "effect of a mutation on the interaction": "with no effect"}]}, {"variants_of": "B3", "conditions": "with FAM167A", "values": [{"variant": "MGSLSSRVLRQPRPALAQQAQGARAGGSARRPDTGDDAAGHGFCYCAGSHKRKRSSGSFCSCHPDSETDEDEEEGDEQQRLLNTPRRKKLKSTSKYIYQTLFLNGENSDIKICALGEEWSLHKIYLCQSGYFSSMFSGSWKESSMNIIELEIPDQNIDVEALQVAFGSLYRDDVLIKPSRVVAILAAACLLQLDGLIQQCGETMKETVNVKTVCGYYTSAGTYGLDSVKKKCLEWLLNNLMTHQNVELFKELSINVMKQLIGSSNLFVMQVEMDIYTALKKWMFLQLVPSWNGSLKQLLTETDVWFSKQRKDFEGMAFLETEQGKPFVSVFRHLRLQYIISDLASARIIEQDAVVPSEWLSSVYKQQWFAMLRAEQDSEVGPQEINKEELEGNSMRCGRKLAKDGEYCWRWTGFNFGFDLLVTYTNRYIIFKRNTLNQPCSGSVSLQPRRSIAFRLRLASFDSSGKLICSRTTGYQILTLEKDQEQVVMNLDSRLLIFPLYICCNFLYISPEKKN", "note": "[Y61S]", "effect of a mutation on the interaction": "with no effect"}]}]}
